Results reported in article PMC1885967, “The Dynamics of Signal Triggering in a gp130-Receptor Complex” (Structure(London, England:1993), 2007).

T1: Extracellular region of murine IL-11 receptor (residues 1-361) (murine, UniProt Q64385 24-361)
T1 construct: signal peptide in the construct; IL-11 receptor, murine, extracellular region, residues 1-361, expressed as a secreted soluble protein; Two copies stand in the hexameric IL-11H complex; also called soluble IL-11R; source: Drosophila S2 cells, stably transfected, secreted; purified from the media (protein A Sepharose, on-column cleavage with rhinovirus 3C protease); not shown: Fc, C-terminal, …
T1 sequence (looked up): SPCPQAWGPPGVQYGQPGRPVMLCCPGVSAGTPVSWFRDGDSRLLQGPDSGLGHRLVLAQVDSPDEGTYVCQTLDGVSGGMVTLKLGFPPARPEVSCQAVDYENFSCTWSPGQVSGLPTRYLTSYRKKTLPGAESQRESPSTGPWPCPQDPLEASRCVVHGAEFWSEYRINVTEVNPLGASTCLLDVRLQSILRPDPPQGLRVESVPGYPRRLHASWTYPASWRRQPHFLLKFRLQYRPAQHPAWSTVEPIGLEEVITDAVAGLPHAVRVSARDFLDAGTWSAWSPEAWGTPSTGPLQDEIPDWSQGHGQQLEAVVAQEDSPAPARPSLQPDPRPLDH

B1: Murine Interleukin 11 (residues 22-199) (ligand, UniProt P47873 22-199, looked up)
chain: PGPPAGSPRVSSDPRADLDSAVLLTRSLLADTRQLAAQMRDKFPADGDHSLDSLPTLAMSAGTLGSLQLPGVLTRLRVDLMSYLRHVQWLRRAGGPSLKTLEPELGALQARLERLLRRLQLLMSRLALPQAAPDQPVIPLGPPASAWGSIRAAHAILGGLHLTLDWAVRGLLLLKTRL
notes: Interleukin 11, murine, residues 22-199, subcloned into pET15b; Two copies stand in the hexameric IL-11H complex; also called IL-11
B2: Extracellular region of murine gp130 (residues 1-617) (receptor, UniProt Q00560 23-617, looked up)
chain: QLLEPCGYIYPEFPVVQRGSNFTAICVLKEACLQHYYVNASYIVWKTNHAAVPREQVTVINRTTSSVTFTDVVLPSVQLTCNILSFGQIEQNVYGVTMLSGFPPDKPTNLTCIVNEGKNMLCQWDPGRETYLETNYTLKSEWATEKFPDCQSKHGTSCMVSYMPTYYVNIEVWVEAENALGKVSSESINFDPVDKVKPTPPYNLSVTNSEELSSILKLSWVSSGLGGLLDLKSDIQYRTKDASTWIQVPLEDTMSPRTSFTVQDLKPFTEYVFRIRSIKDSGKGYWSDWSEEASGTTYEDRPSRPPSFWYKTNPSHGQEYRSVRLIWKALPLSEANGKILDYEVILTQSKSVSQTYTVTGTELTVNLTNDRYVASLAARNKVGKSAAAVLTIPSPHVTAAYSVVNLKAFPKDNLLWVEWTPPPKPVSKYILEWCVLSENAPCVEDWQQEDATVNRTHLRGRLLESKCYQITVTPVFATGPGGSESLKAYLKQAAPARGPTVRTKKVGKNEAVLAWDQIPVDDQNGFIRNYSISYRTSVGKEMVVHVDSSHTEYTLSSLSSDTLYMVRMAAYTDEGGKDGPEFTFTTPKFAQGEIE
notes: signal peptide in the construct; gp130, murine, extracellular region (domains D1-D6), residues 1-617, expressed as a secreted soluble protein; Two copies stand in the hexameric IL-11H complex; also called soluble gp130; source: human epithelial kidney 293T cells, transiently transfected, secreted; purified from the media (protein A Sepharose, on-column cleavage with rhinovirus 3C protease); not …

How the values were obtained:
Assay in all cases: cryo-EM structure; three affinity-purified subunits mixed with IL-11 in molar excess, complex purified by gel filtration (Superdex 200); 5 mM HEPES pH 7.5, 100 mM NaCl, 1 mM DTT, 0.25% β-octylglucopyranoside; 1 mg/ml, vitrified; single-particle reconstruction with C2 symmetry at 30 Å, homology model (IL-6 hexamer plus FNIII repeats) fitted
[1] = molecular target: T1, Extracellular region of murine IL-11 …; settings: both partners purified
[2] = molecular target: B2; settings: both partners purified
[3] = molecular target: the molecule itself

Binder	binding result [1]	binding result [2]	binding result [3]
B1	binds	binds	–
B2	–	–	binds
